Values of other authors, collected in article PMC4048747.

Target: IGF-1R (UniProt P08069)
UniProt P08069, sequence (P08069 31-736, chain 1 of 2): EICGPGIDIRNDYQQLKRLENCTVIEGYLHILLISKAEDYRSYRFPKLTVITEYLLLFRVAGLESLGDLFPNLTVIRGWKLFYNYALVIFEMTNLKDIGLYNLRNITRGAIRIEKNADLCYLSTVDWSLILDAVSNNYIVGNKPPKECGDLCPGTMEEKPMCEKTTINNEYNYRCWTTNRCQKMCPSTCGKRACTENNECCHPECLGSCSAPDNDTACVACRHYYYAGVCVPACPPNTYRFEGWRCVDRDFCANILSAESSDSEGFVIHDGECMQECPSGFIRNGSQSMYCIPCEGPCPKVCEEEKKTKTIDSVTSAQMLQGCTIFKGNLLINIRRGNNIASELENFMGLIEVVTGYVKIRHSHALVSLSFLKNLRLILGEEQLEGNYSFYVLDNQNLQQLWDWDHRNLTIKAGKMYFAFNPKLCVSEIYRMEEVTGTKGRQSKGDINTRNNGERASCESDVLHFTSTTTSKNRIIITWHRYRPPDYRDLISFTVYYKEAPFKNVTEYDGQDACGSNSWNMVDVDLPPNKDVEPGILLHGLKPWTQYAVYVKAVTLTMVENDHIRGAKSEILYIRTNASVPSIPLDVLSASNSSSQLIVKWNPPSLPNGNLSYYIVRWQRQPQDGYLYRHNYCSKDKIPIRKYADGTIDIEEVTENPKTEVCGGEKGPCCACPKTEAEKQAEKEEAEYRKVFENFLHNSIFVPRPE
UniProt P08069, sequence (P08069 741-935, chain 2 of 2): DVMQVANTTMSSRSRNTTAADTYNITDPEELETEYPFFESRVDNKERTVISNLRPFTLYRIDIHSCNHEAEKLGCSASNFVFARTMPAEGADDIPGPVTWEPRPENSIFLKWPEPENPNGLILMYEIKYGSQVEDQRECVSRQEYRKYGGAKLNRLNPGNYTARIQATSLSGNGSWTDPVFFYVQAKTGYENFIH

In the case of Decorin (from UniProt P07585), the Kd is listed as 18 nM.
